Patent US11504441B2, “Radiolabeled compounds targeting the prostate-specific membrane antigen” (PROVINCIAL HEALTH SERVICES AUTHORITY, priority 2019, dated 2022)

Test: in vivo
Design: species or system mice
Details: male, NODSCID 1L2RγKO, mouse, iv, total radioactivity

`COc1ccc(CCCC(=O)NCC(=O)N[C@@H](CCCCNC(=O)CN2CCN(CC(=O)O)CCN(CC(=O)O)CCN(CC(=O)O)CC2)C(=O)NC[C@H]2CC[C@H](C(=O)N[C@@H](Cc3c4ccccc4cc4ccccc34)C(=O)NCCCC[C@H](NC(=O)N[C@@H](COCC(=O)O)C(=O)O)C(=O)O)CC2)cc1` [177Lu-HTK04028, metal not drawn] gave a tissue uptake at 1 h (Adrenal glands uptake) of 3.25 ± 0.34 %ID/g, a tissue uptake at 4 h (Adrenal glands uptake) of 2.18 ± 0.33 %ID/g and a tissue uptake at 24 h (Adrenal glands uptake) of 0.73 ± 0.13 %ID/g. The tissue uptake at 72 h (Adrenal glands uptake) was 0.48 ± 0.17 %ID/g, the tissue uptake at 120 h (Adrenal glands uptake) was 0.33 ± 0.05 %ID/g and the tissue uptake at 1 h (Blood uptake) was 17.7 ± 2.1 %ID/g. For the same compound, the tissue uptake at 4 h (Blood uptake) was 12.2 ± 1.66 %ID/g, the tissue uptake at 24 h (Blood uptake) was 0.82 ± 0.11 %ID/g and the tissue uptake at 72 h (Blood uptake) was 0.05 ± 0.01 %ID/g. It also gave a tissue uptake at 120 h (Blood uptake) of 0.02 %ID/g, a tissue uptake at 1 h (Bone uptake) of 0.99 ± 0.21 %ID/g and a tissue uptake at 4 h (Bone uptake) of 0.63 ± 0.1 %ID/g. It also gave a tissue uptake at 24 h (Bone uptake) of 0.11 ± 0.02 %ID/g, a tissue uptake at 72 h (Bone uptake) of 0.05 ± 0.02 %ID/g and a tissue uptake at 120 h (Bone uptake) of 0.04 ± 0.02 %ID/g. The tissue uptake at 1 h (Brain uptake) was 0.26 ± 0.03 %ID/g, the tissue uptake at 4 h (Brain uptake) was 0.19 ± 0.02 %ID/g and the tissue uptake at 24 h (Brain uptake) was 0.02 %ID/g. For the same compound, the tissue uptake at 72 h (Brain uptake) was 0.01 %ID/g, the tissue uptake at 1 h (Fat uptake) was 1.26 ± 0.21 %ID/g and the tissue uptake at 4 h (Fat uptake) was 0.89 ± 0.24 %ID/g. It also gave a tissue uptake at 24 h (Fat uptake) of 0.14 ± 0.02 %ID/g, a tissue uptake at 72 h (Fat uptake) of 0.06 ± 0.02 %ID/g and a tissue uptake at 120 h (Fat uptake) of 0.03 ± 0.01 %ID/g. The tissue uptake at 1 h (Heart uptake) was 4.15 ± 0.31 %ID/g, the tissue uptake at 4 h (Heart uptake) was 2.67 ± 0.31 %ID/g and the tissue uptake at 24 h (Heart uptake) was 0.36 ± 0.03 %ID/g. The tissue uptake at 72 h (Heart uptake) was 0.12 ± 0.03 %ID/g, the tissue uptake at 120 h (Heart uptake) was 0.07 ± 0.01 %ID/g and the tissue uptake at 1 h (Intestine uptake) was 1.23 ± 0.24 %ID/g. The tissue uptake at 4 h (Intestine uptake) was 1.04 ± 0.12 %ID/g, the tissue uptake at 24 h (Intestine uptake) was 0.23 ± 0.05 %ID/g and the tissue uptake at 72 h (Intestine uptake) was 0.07 ± 0.03 %ID/g. For the same compound, the tissue uptake at 120 h (Intestine uptake) was 0.08 ± 0.05 %ID/g, the tissue uptake at 1 h (Kidneys uptake) was 8.3 ± 1.58 %ID/g and the tissue uptake at 4 h (Kidneys uptake) was 9.21 ± 2.76 %ID/g. It also gave a tissue uptake at 24 h (Kidneys uptake) of 4.32 ± 0.58 %ID/g, a tissue uptake at 72 h (Kidneys uptake) of 1.77 ± 0.25 %ID/g and a tissue uptake at 120 h (Kidneys uptake) of 1.16 ± 0.13 %ID/g. The tissue uptake at 1 h (Lacrimal uptake) was 0.51 ± 0.23 %ID/g, the tissue uptake at 4 h (Lacrimal uptake) was 0.39 ± 0.19 %ID/g and the tissue uptake at 24 h (Lacrimal uptake) was 0.05 ± 0.04 %ID/g. It also gave a tissue uptake at 72 h (Lacrimal uptake) of 0.01 ± 0.01 %ID/g, a tissue uptake at 1 h (Liver uptake) of 2.93 ± 0.51 %ID/g and a tissue uptake at 4 h (Liver uptake) of 2.29 ± 0.55 %ID/g. It also gave a tissue uptake at 24 h (Liver uptake) of 0.54 ± 0.09 %ID/g, a tissue uptake at 72 h (Liver uptake) of 0.22 ± 0.02 %ID/g and a tissue uptake at 120 h (Liver uptake) of 0.31 ± 0.3 %ID/g. For the same compound, the tissue uptake at 1 h (Lungs uptake) was 7.88 ± 1.77 %ID/g, the tissue uptake at 4 h (Lungs uptake) was 5.79 ± 0.44 %ID/g and the tissue uptake at 24 h (Lungs uptake) was 1.08 ± 0.72 %ID/g. The tissue uptake at 72 h (Lungs uptake) was 0.18 ± 0.02 %ID/g, the tissue uptake at 120 h (Lungs uptake) was 0.09 ± 0.01 %ID/g and the tissue uptake at 1 h (Muscle uptake) was 1.32 ± 0.19 %ID/g. The tissue uptake at 4 h (Muscle uptake) was 0.83 ± 0.09 %ID/g, the tissue uptake at 24 h (Muscle uptake) was 0.11 ± 0.02 %ID/g and the tissue uptake at 72 h (Muscle uptake) was 0.03 ± 0.01 %ID/g. It also gave a tissue uptake at 120 h (Muscle uptake) of 0.02 %ID/g, a tissue uptake at 1 h (Pancreas uptake) of 1.53 ± 0.22 %ID/g and a tissue uptake at 4 h (Pancreas uptake) of 1.24 ± 0.04 %ID/g. For the same compound, the tissue uptake at 24 h (Pancreas uptake) was 0.15 ± 0.02 %ID/g, the tissue uptake at 72 h (Pancreas uptake) was 0.05 ± 0.01 %ID/g and the tissue uptake at 120 h (Pancreas uptake) was 0.03 %ID/g. For the same compound, the tissue uptake at 1 h (Salivary uptake) was 2.55 ± 0.21 %ID/g, the tissue uptake at 4 h (Salivary uptake) was 1.75 ± 0.25 %ID/g and the tissue uptake at 24 h (Salivary uptake) was 0.45 ± 0.1 %ID/g. The tissue uptake at 72 h (Salivary uptake) was 0.19 ± 0.05 %ID/g, the tissue uptake at 120 h (Salivary uptake) was 0.11 ± 0.03 %ID/g and the tissue uptake at 1 h (Seminal uptake) was 1.53 ± 0.97 %ID/g. It also gave a tissue uptake at 4 h (Seminal uptake) of 0.9 ± 0.2 %ID/g, a tissue uptake at 24 h (Seminal uptake) of 0.12 ± 0.02 %ID/g and a tissue uptake at 72 h (Seminal uptake) of 0.05 ± 0.01 %ID/g. It also gave a tissue uptake at 120 h (Seminal uptake) of 0.05 ± 0.03 %ID/g, a tissue uptake at 1 h (Spleen uptake) of 1.53 ± 0.23 %ID/g and a tissue uptake at 4 h (Spleen uptake) of 1.44 ± 0.31 %ID/g. The tissue uptake at 24 h (Spleen uptake) was 0.48 ± 0.14 %ID/g, the tissue uptake at 72 h (Spleen uptake) was 0.49 ± 0.16 %ID/g and the tissue uptake at 120 h (Spleen uptake) was 0.69 ± 0.36 %ID/g. The tissue uptake at 1 h (Stomach uptake) was 0.51 ± 0.18 %ID/g, the tissue uptake at 4 h (Stomach uptake) was 0.45 ± 0.06 %ID/g and the tissue uptake at 24 h (Stomach uptake) was 0.31 ± 0.1 %ID/g. It also gave a tissue uptake at 72 h (Stomach uptake) of 0.07 ± 0.07 %ID/g, a tissue uptake at 120 h (Stomach uptake) of 0.1 ± 0.1 %ID/g and a tissue uptake at 1 h (Tail uptake) of 4.85 ± 1.59 %ID/g. It also gave a tissue uptake at 4 h (Tail uptake) of 2.21 ± 0.18 %ID/g, a tissue uptake at 24 h (Tail uptake) of 0.31 ± 0.1 %ID/g and a tissue uptake at 72 h (Tail uptake) of 0.15 ± 0.04 %ID/g. It also gave a tissue uptake at 120 h (Tail uptake) of 0.1 ± 0.03 %ID/g, a tissue uptake at 1 h (Testes uptake) of 2.26 ± 0.46 %ID/g and a tissue uptake at 4 h (Testes uptake) of 2.66 ± 0.41 %ID/g. The tissue uptake at 24 h (Testes uptake) was 0.55 ± 0.05 %ID/g, the tissue uptake at 72 h (Testes uptake) was 0.31 ± 0.05 %ID/g and the tissue uptake at 120 h (Testes uptake) was 0.22 ± 0.01 %ID/g. It also gave a tissue uptake at 1 h (Thyroid uptake) of 3.3 ± 0.42 %ID/g, a tissue uptake at 4 h (Thyroid uptake) of 2.3 ± 0.3 %ID/g and a tissue uptake at 24 h (Thyroid uptake) of 0.52 ± 0.08 %ID/g. For the same compound, the tissue uptake at 72 h (Thyroid uptake) was 0.24 ± 0.04 %ID/g, the tissue uptake at 120 h (Thyroid uptake) was 0.13 ± 0.02 %ID/g and the tissue uptake at 1 h (Tumor uptake) was 19 ± 5.86 %ID/g. For the same compound, the tissue uptake at 4 h (Tumor uptake) was 42.6 ± 11.6 %ID/g, the tissue uptake at 24 h (Tumor uptake) was 30.2 ± 2.74 %ID/g and the tissue uptake at 72 h (Tumor uptake) was 26.1 ± 7.29 %ID/g. For the same compound, the tissue uptake at 120 h (Tumor uptake) was 28.4 ± 5.11 %ID/g.
